From the supplement of paper PMC10065799, “High-throughput profiling of sequence recognition by tyrosine kinases and SH2 domains using bacterial peptide display” (eLife, 2023)

Each sequence was assayed on AncSZ (assay: phosphorylation enrichment, bacterial display (enrichment ratio); higher = better substrate or ligand; peptides without Tyr show the background).
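Note: 11-residue human phosphosite peptides and single-mutation variants displayed on the E. coli surface, counted by deep sequencing, each peptide's frequency after selection divided by its frequency in the unselected input library; frequency after pTyr selection over input frequency; kinase dosed for 20-30% of maximal phosphorylation in three min.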

Sequence	phosphorylation enrichment
EPVSDYINADI [PTPN11_Y304_N308D]	1.5
LLQEWYMIISR [HUWE1_Y4066_R4063Q]	2.05
VPLLEYFWDIF [CDAN1_Y712_R714W_YF]	1.02
TQFWLYFAGNL [SLC25A5_Y112]	1.23
RKGGSYTQAAS [HLA-A_Y344]	0.631
VTRDEYPSNPM [CEMIP2_Y1015_I1010V]	0.6
TVLWLYTGTRP [UGT1A1_Y337_R336L]	1.17
HKANEYFPVVI [ADAMTS18_Y764_L769I_YF]	1.35
AHADEYGAEAL [HBA1_Y25_G23D]	0.97
YRQLQYCPSVE [CTNND2_Y508]	1.11
REGAKYVSHDA [ASS1_Y113_G117D]	1.4
CPYNLYAEQFS [HGD_Y40_L44F]	1.46
FRPPFYHRNCM [HGD_Y334_YF]	0.921
IMWDSYTTNKV [GNB3_Y85_V81M]	0.945
CGQDPYIRELG [UROS_Y19]	1.05
LAGRYYALRSM [CKB_Y174_K177R]	0.807
EQKKFYNAVKK [SCN5A_Y1495_M1498V_YF]	0.499
MGSFNYLGFAW [SPTLC2_Y178_R183W_YF]	1.17
QDLTDYLMKIL [ACTA2_Y190_R185Q]	1.01
CTTIHYNFLCN [TP53_Y234_M237L_YF]	0.873
IGRHAYGDQFR [IDH1_Y135_YF]	0.449
PLYSKYWPNHI [GREB1L_Y1560_R1558S]	2.47
RAEAQYLLVSN [LRIG1_Y1054]	0.897
DKEKWYPLGTS [PIK3C2G_Y1438_N1442T]	0.821
VKGGAYNPVTV [MCCC2_Y145_Y146N]	0.552
PADQAYSWYQH [NDST1_Y711_R709Q]	1.55
NFRTIYVNANE [KCNH2_Y475_T474I]	0.659
ANSSFHSTRSA [NUMA1_Y1836_Y1836H]	0.597
RRVEPYGENFN [APOA4_Y310]	1.23

Each sequence was assayed against EPHB1 (UniProt P54762) in the same assay as above.
Sequence of EPHB1 (P54762 whole entry, looked up): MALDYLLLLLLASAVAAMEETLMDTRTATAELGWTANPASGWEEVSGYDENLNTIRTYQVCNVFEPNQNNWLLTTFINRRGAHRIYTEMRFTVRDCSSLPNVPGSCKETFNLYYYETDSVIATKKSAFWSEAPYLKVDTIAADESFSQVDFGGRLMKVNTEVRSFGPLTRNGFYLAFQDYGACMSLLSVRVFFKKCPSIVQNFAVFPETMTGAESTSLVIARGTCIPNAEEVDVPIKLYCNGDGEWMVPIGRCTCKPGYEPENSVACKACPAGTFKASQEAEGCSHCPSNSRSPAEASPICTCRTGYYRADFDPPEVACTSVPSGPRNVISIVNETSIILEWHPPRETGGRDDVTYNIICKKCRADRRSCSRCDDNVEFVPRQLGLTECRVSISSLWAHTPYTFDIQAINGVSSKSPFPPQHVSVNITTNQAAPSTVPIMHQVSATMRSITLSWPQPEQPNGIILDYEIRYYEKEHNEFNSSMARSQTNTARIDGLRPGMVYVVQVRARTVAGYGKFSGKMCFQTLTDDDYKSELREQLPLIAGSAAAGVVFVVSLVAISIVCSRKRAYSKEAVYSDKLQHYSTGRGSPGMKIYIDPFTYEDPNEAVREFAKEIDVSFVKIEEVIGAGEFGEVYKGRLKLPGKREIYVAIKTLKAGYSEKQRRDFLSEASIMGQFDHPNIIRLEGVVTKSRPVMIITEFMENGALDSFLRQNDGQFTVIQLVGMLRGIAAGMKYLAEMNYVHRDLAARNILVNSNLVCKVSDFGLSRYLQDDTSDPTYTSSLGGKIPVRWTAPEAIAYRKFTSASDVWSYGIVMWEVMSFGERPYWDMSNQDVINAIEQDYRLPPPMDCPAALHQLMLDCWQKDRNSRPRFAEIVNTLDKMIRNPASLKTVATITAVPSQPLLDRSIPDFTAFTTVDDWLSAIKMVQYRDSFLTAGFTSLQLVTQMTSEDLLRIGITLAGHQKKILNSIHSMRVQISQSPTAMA

Sequence	phosphorylation enrichment
EPVSDYINADI [PTPN11_Y304_N308D]	0.695
LLQEWYMIISR [HUWE1_Y4066_R4063Q]	2.11
VPLLEYFWDIF [CDAN1_Y712_R714W_YF]	0.455
TQFWLYFAGNL [SLC25A5_Y112]	0.681
RKGGSYTQAAS [HLA-A_Y344]	0.446
VTRDEYPSNPM [CEMIP2_Y1015_I1010V]	0.411
TVLWLYTGTRP [UGT1A1_Y337_R336L]	0.548
HKANEYFPVVI [ADAMTS18_Y764_L769I_YF]	0.762
AHADEYGAEAL [HBA1_Y25_G23D]	0.538
YRQLQYCPSVE [CTNND2_Y508]	0.661
REGAKYVSHDA [ASS1_Y113_G117D]	0.508
CPYNLYAEQFS [HGD_Y40_L44F]	4.18
FRPPFYHRNCM [HGD_Y334_YF]	0.417
IMWDSYTTNKV [GNB3_Y85_V81M]	0.544
CGQDPYIRELG [UROS_Y19]	0.674
LAGRYYALRSM [CKB_Y174_K177R]	0.701
EQKKFYNAVKK [SCN5A_Y1495_M1498V_YF]	0.417
MGSFNYLGFAW [SPTLC2_Y178_R183W_YF]	2.34
QDLTDYLMKIL [ACTA2_Y190_R185Q]	0.523
CTTIHYNFLCN [TP53_Y234_M237L_YF]	0.54
IGRHAYGDQFR [IDH1_Y135_YF]	0.367
PLYSKYWPNHI [GREB1L_Y1560_R1558S]	19.1
RAEAQYLLVSN [LRIG1_Y1054]	0.639
DKEKWYPLGTS [PIK3C2G_Y1438_N1442T]	0.544
VKGGAYNPVTV [MCCC2_Y145_Y146N]	0.471
PADQAYSWYQH [NDST1_Y711_R709Q]	0.755
NFRTIYVNANE [KCNH2_Y475_T474I]	0.543
ANSSFHSTRSA [NUMA1_Y1836_Y1836H]	0.436
RRVEPYGENFN [APOA4_Y310]	0.521

Each sequence was assayed against EPHB2 (UniProt P29323) in the same assay as above.
Sequence of EPHB2 (P29323 whole entry, looked up): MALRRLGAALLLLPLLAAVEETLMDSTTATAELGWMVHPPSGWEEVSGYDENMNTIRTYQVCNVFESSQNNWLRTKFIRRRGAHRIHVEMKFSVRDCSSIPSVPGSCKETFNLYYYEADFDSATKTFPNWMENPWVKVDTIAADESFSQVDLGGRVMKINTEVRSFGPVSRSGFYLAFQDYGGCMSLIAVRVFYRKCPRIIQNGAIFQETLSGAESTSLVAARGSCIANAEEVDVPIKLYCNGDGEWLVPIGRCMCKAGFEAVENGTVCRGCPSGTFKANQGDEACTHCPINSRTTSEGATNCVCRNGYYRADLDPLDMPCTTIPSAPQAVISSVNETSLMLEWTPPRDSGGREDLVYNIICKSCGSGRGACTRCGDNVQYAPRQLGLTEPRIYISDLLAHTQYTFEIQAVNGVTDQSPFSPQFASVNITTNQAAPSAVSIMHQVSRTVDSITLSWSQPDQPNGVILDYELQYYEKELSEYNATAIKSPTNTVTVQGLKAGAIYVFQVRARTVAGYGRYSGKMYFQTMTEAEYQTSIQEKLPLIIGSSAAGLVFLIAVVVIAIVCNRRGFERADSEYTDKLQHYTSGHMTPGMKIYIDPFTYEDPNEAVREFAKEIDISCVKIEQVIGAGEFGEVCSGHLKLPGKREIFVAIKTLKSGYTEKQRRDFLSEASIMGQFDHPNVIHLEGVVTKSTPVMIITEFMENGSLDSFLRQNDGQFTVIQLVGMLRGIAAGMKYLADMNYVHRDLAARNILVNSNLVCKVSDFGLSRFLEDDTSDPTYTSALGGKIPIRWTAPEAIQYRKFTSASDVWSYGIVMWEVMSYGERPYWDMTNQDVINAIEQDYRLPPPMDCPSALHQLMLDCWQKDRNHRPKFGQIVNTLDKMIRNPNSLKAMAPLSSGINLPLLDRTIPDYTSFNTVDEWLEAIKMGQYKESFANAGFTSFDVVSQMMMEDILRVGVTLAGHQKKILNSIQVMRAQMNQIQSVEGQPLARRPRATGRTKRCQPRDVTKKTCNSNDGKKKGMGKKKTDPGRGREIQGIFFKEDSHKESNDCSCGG

Sequence	phosphorylation enrichment
EPVSDYINADI [PTPN11_Y304_N308D]	0.689
LLQEWYMIISR [HUWE1_Y4066_R4063Q]	0.921
VPLLEYFWDIF [CDAN1_Y712_R714W_YF]	0.469
TQFWLYFAGNL [SLC25A5_Y112]	0.665
RKGGSYTQAAS [HLA-A_Y344]	0.399
VTRDEYPSNPM [CEMIP2_Y1015_I1010V]	0.417
TVLWLYTGTRP [UGT1A1_Y337_R336L]	0.487
HKANEYFPVVI [ADAMTS18_Y764_L769I_YF]	0.806
AHADEYGAEAL [HBA1_Y25_G23D]	0.403
YRQLQYCPSVE [CTNND2_Y508]	0.591
REGAKYVSHDA [ASS1_Y113_G117D]	0.423
CPYNLYAEQFS [HGD_Y40_L44F]	3.18
FRPPFYHRNCM [HGD_Y334_YF]	0.489
IMWDSYTTNKV [GNB3_Y85_V81M]	0.437
CGQDPYIRELG [UROS_Y19]	0.53
LAGRYYALRSM [CKB_Y174_K177R]	0.688
EQKKFYNAVKK [SCN5A_Y1495_M1498V_YF]	0.407
MGSFNYLGFAW [SPTLC2_Y178_R183W_YF]	1.09
QDLTDYLMKIL [ACTA2_Y190_R185Q]	0.772
CTTIHYNFLCN [TP53_Y234_M237L_YF]	0.576
IGRHAYGDQFR [IDH1_Y135_YF]	0.391
PLYSKYWPNHI [GREB1L_Y1560_R1558S]	29.7
RAEAQYLLVSN [LRIG1_Y1054]	0.551
DKEKWYPLGTS [PIK3C2G_Y1438_N1442T]	0.496
VKGGAYNPVTV [MCCC2_Y145_Y146N]	0.372
PADQAYSWYQH [NDST1_Y711_R709Q]	0.674
NFRTIYVNANE [KCNH2_Y475_T474I]	0.5
ANSSFHSTRSA [NUMA1_Y1836_Y1836H]	0.51
RRVEPYGENFN [APOA4_Y310]	0.385

The sequences below were run against FGFR1 (UniProt P11362) in the same assay as above.
Sequence of FGFR1 (P11362 whole entry, looked up): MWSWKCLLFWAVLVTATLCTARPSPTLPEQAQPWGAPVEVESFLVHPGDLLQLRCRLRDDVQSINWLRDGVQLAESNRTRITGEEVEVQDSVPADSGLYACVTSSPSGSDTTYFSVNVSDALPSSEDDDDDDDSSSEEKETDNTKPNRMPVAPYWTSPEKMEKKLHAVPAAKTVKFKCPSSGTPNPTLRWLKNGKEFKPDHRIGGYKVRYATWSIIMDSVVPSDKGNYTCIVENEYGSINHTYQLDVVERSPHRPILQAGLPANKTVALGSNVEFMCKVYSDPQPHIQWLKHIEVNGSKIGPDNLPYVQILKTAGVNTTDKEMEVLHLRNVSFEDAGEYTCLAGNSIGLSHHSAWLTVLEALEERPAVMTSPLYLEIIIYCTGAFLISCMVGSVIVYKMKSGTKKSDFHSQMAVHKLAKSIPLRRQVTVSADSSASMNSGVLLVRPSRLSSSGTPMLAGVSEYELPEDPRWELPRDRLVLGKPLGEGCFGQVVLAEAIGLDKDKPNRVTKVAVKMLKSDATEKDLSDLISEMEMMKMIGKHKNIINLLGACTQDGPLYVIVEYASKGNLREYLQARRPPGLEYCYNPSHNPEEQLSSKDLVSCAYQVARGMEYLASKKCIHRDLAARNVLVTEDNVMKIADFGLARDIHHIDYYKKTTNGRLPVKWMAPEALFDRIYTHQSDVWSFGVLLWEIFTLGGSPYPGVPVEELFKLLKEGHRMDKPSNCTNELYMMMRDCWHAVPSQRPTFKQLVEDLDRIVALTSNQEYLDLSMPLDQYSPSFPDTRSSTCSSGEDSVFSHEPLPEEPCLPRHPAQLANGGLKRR

Sequence	phosphorylation enrichment
EPVSDYINADI [PTPN11_Y304_N308D]	0.77
LLQEWYMIISR [HUWE1_Y4066_R4063Q]	1.04
VPLLEYFWDIF [CDAN1_Y712_R714W_YF]	3.61
TQFWLYFAGNL [SLC25A5_Y112]	0.534
RKGGSYTQAAS [HLA-A_Y344]	0.442
VTRDEYPSNPM [CEMIP2_Y1015_I1010V]	0.323
TVLWLYTGTRP [UGT1A1_Y337_R336L]	0.369
HKANEYFPVVI [ADAMTS18_Y764_L769I_YF]	11.8
AHADEYGAEAL [HBA1_Y25_G23D]	0.398
YRQLQYCPSVE [CTNND2_Y508]	0.545
REGAKYVSHDA [ASS1_Y113_G117D]	0.648
CPYNLYAEQFS [HGD_Y40_L44F]	0.877
FRPPFYHRNCM [HGD_Y334_YF]	0.426
IMWDSYTTNKV [GNB3_Y85_V81M]	0.451
CGQDPYIRELG [UROS_Y19]	0.497
LAGRYYALRSM [CKB_Y174_K177R]	0.751
EQKKFYNAVKK [SCN5A_Y1495_M1498V_YF]	0.35
MGSFNYLGFAW [SPTLC2_Y178_R183W_YF]	0.971
QDLTDYLMKIL [ACTA2_Y190_R185Q]	0.807
CTTIHYNFLCN [TP53_Y234_M237L_YF]	0.556
IGRHAYGDQFR [IDH1_Y135_YF]	0.331
PLYSKYWPNHI [GREB1L_Y1560_R1558S]	5.11
RAEAQYLLVSN [LRIG1_Y1054]	2.61
DKEKWYPLGTS [PIK3C2G_Y1438_N1442T]	0.409
VKGGAYNPVTV [MCCC2_Y145_Y146N]	0.447
PADQAYSWYQH [NDST1_Y711_R709Q]	5.18
NFRTIYVNANE [KCNH2_Y475_T474I]	0.417
ANSSFHSTRSA [NUMA1_Y1836_Y1836H]	0.551
RRVEPYGENFN [APOA4_Y310]	0.421
